This note sets out measurements from article PMC10979912.

This assay deals with Tau (2N4R Tau; Tau(291–391)) 2-441 (UniProt P10636). The assay can be described thus: solid-phase ELISA, immobilised fragment, soluble Tau. The following applies: reference: unmodified (WT) Tau(291–391). (In general: An ELISA detects its analyte on a solid surface through an enzyme-linked reagent.)

Take “Tau (2N4R Tau; Tau(291–391)) 291-391 (from UniProt P10636-8) pS305 Tau(291–391)”: the “binding against the reference” value (sites S305) was “weaker”.

As for “Tau (2N4R Tau; Tau(291–391)) 291-391 (from UniProt P10636-8) pS352 Tau(291–391)”, the “binding against the reference” value (sites S352) was “weaker”.

Regarding “Tau (2N4R Tau; Tau(291–391)) 291-391 (from UniProt P10636-8) pS356 Tau(291–391)”, the “binding against the reference” value (sites S356) is listed as “weaker”.
